Several values for one entry are separate records, joined by “and”; a condition that tells them apart may be missing. Equal values may be shown once.
Molecular target: mutant-1a anti-A scFv
Test: non-reducing SDS-PAGE; elution fraction EfA1 of nickel affinity chromatography on a Coomassie-stained 15% SDS-PAGE gel, non-reducing

B1: mutant-1a anti-A scFv (scFv, V domains shown)
VH: QVQLQQPGAELVKPGTSVKLSCKASGYNFTSYWINWVKLRPGQCLEWIGDIYPGSGITNYNEKFKSKATLTVDTSSSTAYMQLSSLASEDSALYYCAGQYGNLWFAYWGQGTLVTVSG
VL: DIQMTQTTSSLSASLGDRVTISCRASQDINNYLNWYQQKPDGTVKLLIHYTSRLHSGVPSRFSGSGSGTDYSLTISNLEQEDIATYFCQQGNTLPWTFGCGTKLEIK
  stoichiometry N: 2 and 3

— paper PMC11348219
